The record followed here is PMC5052650, “Characterization of the DNA dependent activation of human ARTD2/PARP2”.

Data set [1] addresses T1, ARTD2FL (Homo sapiens, UniProt Q9UGN5 1-583). The data set can be described thus: EMSA; some free DNA even at 4:1; FP: 10 mM Hepes pH 8.0, 150 mM NaCl, 0.1 mM TCEP, 0.1 mM EDTA, 10% glycerol, 25 C, 5 nM DNA (250 nM for stoichiometry); EMSA: 50 mM Hepes, 300 mM NaCl, 0.1 mM EDTA, 10% glycerol, 0.1 mM TCEP, on ice, 1 uM DNA; SEC-SAXS: 20 mM Hepes pH 7.5, 300 mM NaCl, 5% glycerol. Particulars: protein: recombinant; tags: His6-thioredoxin removed by TEV (QS left); nicked dumbbell, two hairpins, 1 strand.

For data set [2], the target named is T1, ARTD2FL. The data set can be described thus: fluorescence polarization; Kd range 10-63 nM over oligos; 1:1 to 4:1; FP: 10 mM Hepes pH 8.0, 150 mM NaCl, 0.1 mM TCEP, 0.1 mM EDTA, 10% glycerol, 25 C, 5 nM DNA (250 nM for stoichiometry); EMSA: 50 mM Hepes, 300 mM NaCl, 0.1 mM EDTA, 10% glycerol, 0.1 mM TCEP, on ice, 1 uM DNA; SEC-SAXS: 20 mM Hepes pH 7.5, 300 mM NaCl, 5% glycerol. Particulars: protein: recombinant, tags: His6-thioredoxin removed by TEV (QS left), label: fluorescein. A general note: In fluorescence polarisation assays a small probe gives low polarisation when free and higher when bound to something large.

Data set [3] concerns the target T1, ARTD2FL. The data set can be described thus: fluorescence polarization; affinity similar to oligo 40; FP: 10 mM Hepes pH 8.0, 150 mM NaCl, 0.1 mM TCEP, 0.1 mM EDTA, 10% glycerol, 25 C, 5 nM DNA (250 nM for stoichiometry); EMSA: 50 mM Hepes, 300 mM NaCl, 0.1 mM EDTA, 10% glycerol, 0.1 mM TCEP, on ice, 1 uM DNA; SEC-SAXS: 20 mM Hepes pH 7.5, 300 mM NaCl, 5% glycerol. To be noted: protein: recombinant; tags: His6-thioredoxin removed by TEV (QS left); label: fluorescein.

In data set [4] the target is T1, ARTD2FL. Briefly: EMSA; FP: 10 mM Hepes pH 8.0, 150 mM NaCl, 0.1 mM TCEP, 0.1 mM EDTA, 10% glycerol, 25 C, 5 nM DNA (250 nM for stoichiometry); EMSA: 50 mM Hepes, 300 mM NaCl, 0.1 mM EDTA, 10% glycerol, 0.1 mM TCEP, on ice, 1 uM DNA; SEC-SAXS: 20 mM Hepes pH 7.5, 300 mM NaCl, 5% glycerol. To be noted: protein: recombinant; tags: His6-thioredoxin removed by TEV (QS left).

For data set [5], the target named is T1, ARTD2FL. Briefly: fluorescence polarization; affinity similar to oligo 39; FP: 10 mM Hepes pH 8.0, 150 mM NaCl, 0.1 mM TCEP, 0.1 mM EDTA, 10% glycerol, 25 C, 5 nM DNA (250 nM for stoichiometry); EMSA: 50 mM Hepes, 300 mM NaCl, 0.1 mM EDTA, 10% glycerol, 0.1 mM TCEP, on ice, 1 uM DNA; SEC-SAXS: 20 mM Hepes pH 7.5, 300 mM NaCl, 5% glycerol. To be noted: protein: recombinant; tags: His6-thioredoxin removed by TEV (QS left); label: fluorescein.

The target in data set [6] is T1, ARTD2FL. The data set can be described thus: EMSA; no free DNA only after 4:1; FP: 10 mM Hepes pH 8.0, 150 mM NaCl, 0.1 mM TCEP, 0.1 mM EDTA, 10% glycerol, 25 C, 5 nM DNA (250 nM for stoichiometry); EMSA: 50 mM Hepes, 300 mM NaCl, 0.1 mM EDTA, 10% glycerol, 0.1 mM TCEP, on ice, 1 uM DNA; SEC-SAXS: 20 mM Hepes pH 7.5, 300 mM NaCl, 5% glycerol. Particulars: protein: recombinant; tags: His6-thioredoxin removed by TEV (QS left); blunt, palindromic, 2 copies. A general note: Mobility shift assays separate free from complexed probe on a gel.

For data set [7], the target named is T1, ARTD2FL. Briefly: fluorescence polarization; Kd range 10-63 nM over oligos; binds as monomer (1:1); FP: 10 mM Hepes pH 8.0, 150 mM NaCl, 0.1 mM TCEP, 0.1 mM EDTA, 10% glycerol, 25 C, 5 nM DNA (250 nM for stoichiometry); EMSA: 50 mM Hepes, 300 mM NaCl, 0.1 mM EDTA, 10% glycerol, 0.1 mM TCEP, on ice, 1 uM DNA; SEC-SAXS: 20 mM Hepes pH 7.5, 300 mM NaCl, 5% glycerol. Particulars: protein: recombinant; tags: His6-thioredoxin removed by TEV (QS left); label: fluorescein; hairpin, blunt.

The target in the next data set is ARTD2CAT (Homo sapiens, UniProt Q9UGN5 235-583). The data set can be described thus: EMSA; FP: 10 mM Hepes pH 8.0, 150 mM NaCl, 0.1 mM TCEP, 0.1 mM EDTA, 10% glycerol, 25 C, 5 nM DNA (250 nM for stoichiometry); EMSA: 50 mM Hepes, 300 mM NaCl, 0.1 mM EDTA, 10% glycerol, 0.1 mM TCEP, on ice, 1 uM DNA; SEC-SAXS: 20 mM Hepes pH 7.5, 300 mM NaCl, 5% glycerol. To be noted: protein: recombinant; tags: His6 removed by TEV (SM left); hairpin, blunt.
ARTD2CAT, sequence (Q9UGN5 235-583): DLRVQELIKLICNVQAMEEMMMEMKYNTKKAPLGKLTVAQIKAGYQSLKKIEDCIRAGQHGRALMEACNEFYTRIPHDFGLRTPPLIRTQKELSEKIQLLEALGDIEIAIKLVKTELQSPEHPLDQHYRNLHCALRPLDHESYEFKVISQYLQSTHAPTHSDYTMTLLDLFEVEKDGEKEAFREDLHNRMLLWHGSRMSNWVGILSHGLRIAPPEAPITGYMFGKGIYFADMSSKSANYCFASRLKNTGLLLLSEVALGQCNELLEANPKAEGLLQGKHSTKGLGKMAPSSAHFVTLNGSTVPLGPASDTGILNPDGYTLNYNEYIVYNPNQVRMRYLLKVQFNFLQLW

In the next data set the target is ARTD2WGR+CAT (Homo sapiens, UniProt Q9UGN5 71-583). The description is as above. Particulars: protein: recombinant; tags: His6-ZB removed by TEV (QS left); hairpin, blunt.
ARTD2WGR+CAT, sequence (Q9UGN5 71-583): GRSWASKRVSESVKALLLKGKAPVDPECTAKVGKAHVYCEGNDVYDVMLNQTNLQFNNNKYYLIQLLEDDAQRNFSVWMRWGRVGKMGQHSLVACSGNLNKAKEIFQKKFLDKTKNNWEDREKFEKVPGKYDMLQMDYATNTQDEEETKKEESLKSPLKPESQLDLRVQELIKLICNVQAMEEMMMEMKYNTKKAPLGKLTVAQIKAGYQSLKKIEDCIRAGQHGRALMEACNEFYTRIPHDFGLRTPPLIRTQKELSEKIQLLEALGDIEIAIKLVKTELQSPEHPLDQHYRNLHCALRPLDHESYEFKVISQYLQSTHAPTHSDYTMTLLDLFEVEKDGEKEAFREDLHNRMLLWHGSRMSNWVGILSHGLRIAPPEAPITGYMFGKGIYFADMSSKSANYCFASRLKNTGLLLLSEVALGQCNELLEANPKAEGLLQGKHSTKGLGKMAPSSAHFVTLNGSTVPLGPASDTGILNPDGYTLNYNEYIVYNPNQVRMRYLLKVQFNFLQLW
In data set [8] the target is T1, ARTD2FL. Briefly: EMSA; no free DNA above 2:1; FP: 10 mM Hepes pH 8.0, 150 mM NaCl, 0.1 mM TCEP, 0.1 mM EDTA, 10% glycerol, 25 C, 5 nM DNA (250 nM for stoichiometry); EMSA: 50 mM Hepes, 300 mM NaCl, 0.1 mM EDTA, 10% glycerol, 0.1 mM TCEP, on ice, 1 uM DNA; SEC-SAXS: 20 mM Hepes pH 7.5, 300 mM NaCl, 5% glycerol. To be noted: protein: recombinant; tags: His6-thioredoxin removed by TEV (QS left); hairpin, blunt.

T1 sequence (Q9UGN5 whole entry): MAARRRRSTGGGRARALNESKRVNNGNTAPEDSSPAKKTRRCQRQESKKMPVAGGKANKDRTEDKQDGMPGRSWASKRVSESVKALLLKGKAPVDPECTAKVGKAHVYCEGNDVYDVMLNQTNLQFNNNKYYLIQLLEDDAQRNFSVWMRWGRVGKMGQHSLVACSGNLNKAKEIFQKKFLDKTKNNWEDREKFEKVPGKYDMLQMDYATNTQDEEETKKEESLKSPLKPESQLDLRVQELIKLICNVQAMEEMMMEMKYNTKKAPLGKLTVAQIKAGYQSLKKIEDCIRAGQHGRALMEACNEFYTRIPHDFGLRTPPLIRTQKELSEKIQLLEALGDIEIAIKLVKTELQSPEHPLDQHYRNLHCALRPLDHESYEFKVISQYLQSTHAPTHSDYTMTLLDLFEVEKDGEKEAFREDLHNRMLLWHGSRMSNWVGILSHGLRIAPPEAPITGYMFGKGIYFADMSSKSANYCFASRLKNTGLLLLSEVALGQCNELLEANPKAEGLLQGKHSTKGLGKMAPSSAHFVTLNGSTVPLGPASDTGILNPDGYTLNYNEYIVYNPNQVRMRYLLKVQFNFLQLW

For the molecule GGAAGTTCTTTTGAACTTCCTCGAAGCTTTTGCTTCGA (structured_DNA, 5'-phosphate) [oligonucleotide 2], the binding result with ARTD2FL [1] is “binds”.

GGAAGTTCTTTTGAACTTCCTCGAAGCTTTTGCTTCGA (structured_DNA, 5'-phosphate) [oligonucleotide 41 (labelled 2)]: the binding result with ARTD2FL [2] (nicked dumbbell, two hairpins, 1 strand) is recorded as “binds”.

B1: oligonucleotide 39 (labelled 19) (dsDNA)
DNA 1: CCAGGACCAGGGCGCAGATCACCTTGTTCTCCA
DNA 2: TGGAGAACAAGGTGATCTGCGCCCTGGTCCTGG
Take B1: the binding result with ARTD2FL [3] is given as “binds”.

B2: oligonucleotide 20 (dsDNA)
DNA 1: B1 DNA 1
DNA 2: B1 DNA 2
modifications: 5'-phosphate
For B2, in the data set with ARTD2FL [4], the binding result is “binds”.

B3: oligonucleotide 40 (labelled 20) (dsDNA)
DNA 1: B1 DNA 1
DNA 2: B1 DNA 2
modifications: 5'-phosphate
Turning to B3, in the data set with ARTD2FL [5], the binding result was “binds”.

B4: oligonucleotide 38 (labelled 18) (dsDNA)
DNA 1: GCCTTAGCGCGTATACGCGCTAAGGC
DNA 2: GCCTTAGCGCGTATACGCGCTAAGGC
modifications: 5'-phosphate
Consider B4, for which the binding result with ARTD2FL [2] (blunt, palindromic, 2 copies) was “binds”.

B5: oligonucleotide 18 (dsDNA)
DNA 1: GCCTTAGCGCGTATACGCGCTAAGGC
DNA 2: GCCTTAGCGCGTATACGCGCTAAGGC
modifications: 5'-phosphate
In the case of B5, in the data set with ARTD2FL [6], the binding result was “binds”.

In the case of GGAAGTTCTTTTGAACTTCC (structured_DNA, 5'-phosphate) [oligonucleotide 42 (labelled 6)], the binding result in the data set with ARTD2FL [7] is “binds”.

Regarding GGAAGTTCTTTTGAACTTCC (structured_DNA, 5'-phosphate) [oligonucleotide 6], the binding result is “no binding” with ARTD2CAT, “binds” with ARTD2WGR+CAT and “binds” with ARTD2FL [8].
